In article PMC11485400 (Alzheimer's & Dementia, 2024):
Like-named read-outs stand apart in the source and are kept apart here.

B1: human recombinant PrP^C 23-230 (domain or fragment)
chain: not shown

Legend:
Experiment in all cases: SPR
[1] = target: T1, synthetic human Aβ1-40, oligomerised (human, UniProt P05067)
[2] = target: T2, synthetic human Aβ1-42, oligomerised (human, UniProt P05067)
[3] = target: B1
[4] = target: T1, synthetic human Aβ1-40, oligomerised; remark: listed apart in the source
[5] = target: T2, synthetic human Aβ1-42, oligomerised; remark: listed apart in the source

B1
Kd [1]: 0.0288 µM
Kd [2]: 0.0113 µM

B2: caveolin-1 (Cav-1) (natural protein)
chain: MSGGKYVDSEGHLYTVPIREQGNIYKPNNKAMADELSEKQVYDAHTKEIDLVNRDPKHLNDDVVKIDFEDVIAEPEGTHSFDGIWKASFTTFTVTKYWFYRLLSALFGIPMALIWGIYFAILSFLHIWAVVPCIKSFLIEIQCISRVYSIYVHTVCDPLFEAVGKIFSNVRINLQKEI
Kd [3]: 0.0141 µM
Kd [4]: 0.0114 µM
Kd [5]: 0.013 µM
